From PMC10799895 (Nature Communications, 2024)

Target: T1, His-sumo-ATG14 (UniProt Q6ZNE5 1-492)
T1 construct: not shown: 6×His, N-terminal, kept; SUMO, N-terminal, kept
Assay: pull-down; GST pull-down in vitro: GST-tagged protein on GST beads with the His-tagged protein overnight at 4 °C in 20 mM Tris pH 7.4, 300 mM NaCl, 0.1% NP-40, 1 mM PMSF; three washes; western blot
Conditions: both partners purified

T1 sequence (Q6ZNE5 whole entry): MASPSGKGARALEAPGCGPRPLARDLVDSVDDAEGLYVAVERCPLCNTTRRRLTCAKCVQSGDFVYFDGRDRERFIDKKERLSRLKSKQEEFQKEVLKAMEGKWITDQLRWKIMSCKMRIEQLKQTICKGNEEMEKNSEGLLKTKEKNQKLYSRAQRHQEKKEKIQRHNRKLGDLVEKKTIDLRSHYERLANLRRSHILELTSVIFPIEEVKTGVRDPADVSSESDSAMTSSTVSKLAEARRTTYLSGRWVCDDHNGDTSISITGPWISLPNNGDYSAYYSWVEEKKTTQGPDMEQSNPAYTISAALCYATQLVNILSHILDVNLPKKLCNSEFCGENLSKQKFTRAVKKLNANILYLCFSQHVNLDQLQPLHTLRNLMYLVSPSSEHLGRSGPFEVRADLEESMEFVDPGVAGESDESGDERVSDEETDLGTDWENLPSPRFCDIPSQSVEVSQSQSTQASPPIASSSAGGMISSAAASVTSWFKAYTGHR

binding result: binds
B1: GST-GABARAP (natural protein, UniProt O95166 1-117, looked up)
chain: MKFVYKEEHPFEKRRSEGEKIRKKYPDRVPVIVEKAPKARIGDLDKKKYLVPSDLTVGQFYFLIRKRIHLRAEDALFFFVNNVIPPTSATMGQLYQEHHEEDFFLYIAYSDESVYGL
notes: also called GST-ATG8s; not shown: GST, N-terminal, kept
